experiment: yeast display, Sf9 membrane polyspecificity reagent, FACS + sequencing; frameworks hold sequencing errors
In short: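 A synthetic nanobody library was expressed on Saccharomyces cerevisiae BJ5465 by galactose induction for 36–48 hours. The library was stained for 1 hour at 4 °C with 10% biotinylated, detergent-solubilized Sf9 membrane reagent and enriched with streptavidin microbeads before FACS. Low and high (top ~1%) gates were set on anti-HA fluorescence for expression and streptavidin fluorescence for reagent binding, and each polyreactivity label reflects the gate of origin.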

Sequence	polyreactivity (PSR sort gate)
QVQLVESGGGLVQAGGSLRLSCAPSGRTFKVNDMGWYRQAPGKERELVAAINYRGGRTYYADSVKGRFTISRDNAKNNFYLQMNSLKPEDTAFYYCNAQSGVVADDYWGQGTQVTVSS	high polyreactivity
QVQLVESGGGLVQAGGSLRLSCAASGSTFVYNAMGWYRQAPGKEREFVAVINWSGGRTYADSVKGRFTISRDNAKNTVYLQMNSLKPEDTAVYYCNARRRTGYRPAMDYWGQGTQVTVSS	high polyreactivity
QVQLEESGGGLVQAGGSLRFSCAASGITFDQNAMGWYRQAPGKEREFVAAISVSGGRTYYADSVKGPFTISRDNAKNSVYLQLNSLKPDDSAVYYCNADYAFYYPLEPLDVGYDYWGQGTQVTVSS	high polyreactivity
QVQLVESGGGLVQAGGSLRLSCAASGRTFPYYVMGWNRQAPRKERELVATISSSGRTYYADSVKGRFTISRDNAKNTVYLQMNSLNPEDTSVYYCAARFRWNQNYHFYYWGQGTQVTVSS	high polyreactivity
QVQLVESGGGLVQAGGSLRLSCAASGRTFPRYAMGWYRQAPGKEMELVAAISVRAGITYYADSVKGRFTISRDNAKNTVYLQMNSLKPEDTAVYYCAKDHWTTSYDEGDYWGQGTQVTVSS	low polyreactivity
QDQLVESRVGLVQAGGSLRLSCAASGRIIPKYAMGWYRQAPGKERELVAAISSSGGSTYYADSVKGRFTISRDYAKNNVYLQMNSLNPEVTAVYYCNVDKATRYRYPGFDYWGQGTQVSVSS	high polyreactivity
QVQLVESGGGLVQAGGSLRLSCAASGFIFYRYAMGWSRQAPGKERELVAAISYRGGSTYYADSVKGRFTISRDIAKNTVYLQMNSLKAEDTAFYYCAAPGLYSRLDYWGQGTQVTVSS	high polyreactivity
QFQLVESWGGLVQAGGSLRLSCAASGYIFGYVMGWYRQAPGKERELVAAITYSSGNTYYADSVKGRFTISRDNAKNTVYLQMNSLKPEDTAVYYCAKQAYYKGRLAYGYWGQATQVTVSS	high polyreactivity
QVQLVESGGGLVQAGGSLRLSCAASGSTFRINAMGWYRQAPGKERELVAAITSGGSTKYADSVKGRFTISRDNAKNTVYLQMNSLKPEDTAVYYCNKQGYPYRYFAWYPGYNYWGQGTQVTVSS	low polyreactivity
QVQLVESGGGLVQAGGSLRLSCAASGSIFRINVMGWYRQAPGKERELVAAISYSGGRTYYADSVKGRFTISRDNAKKTVYLQMNSLKPEDTAVYYCAATRSNFIYDYWGQGTQVTVSS	high polyreactivity
QVQLVESGGGLVQAGGSLRLSCAASGFILWYYTMGWYRQAPGKERELVAVIDWSGDSTYADSVKGRFTISRDNAKNTVYLQMNSLKPEDTAVYYCNKGYPSPQDTYYVPMDYWGQGTQVTVSS	low polyreactivity
QVQLVESGGGLVQAGGSLRISCAASGYTFLAYAMGWYRQAPGKERELVAAISRSGVSTYYADSVKGRFTISRDNAKNTVYLQMYSLKTEYTAVYYFNARSGRQLARYGYWGHGTQVTVSS	high polyreactivity
QVQLVESGGGLVQAGGSLRLSCAASGSIFPYYAMGWYRQAPGKERELVAAITGAGSTNYADSVKGRFTISRDNAKNTVYLQMNSLKPEDTAVYYCAADFGSPDKWRDWYDYWGQGTQVTVSS	low polyreactivity
QVQLVESGGGLVQAGGSLRLSCGASGAIFSRYAMGWSRPAPGKERQLVAAITSSGGSTYYADSVKGRFTISRDNAKNTVYLQMNSLKPEDTAVYYCATQYAGPWGEYDYWGQGTQVTVSS	low polyreactivity
QVQLVESGGGLVQAGGSLRLSCAASGRIFKYYAMGWYRQAPGKERELVAAISGTGGGTYYADSVKGRFTISRDNAKNTVYLQMNSLKPEDTAVYYCAALHQAYRGFDYWGQGTQVSVSS	high polyreactivity
QVQLVESGGGLVQAGGSLRLSCAASGFIFRNYAMGWNTQAPGKERELVAAISRSVGRTYYADSVKGRFTISRDNAKNTVYLQMNSLKPEDPAVYYCAVHIYGIGFYFTYLYVNGYDYWGQGTQVTVSS	high polyreactivity
QVQLVESGGVLVHAGGSLRLSCAASGITFEYYTMGWYRKAPGKERELVAAISSGGGSTYYADSVKGRFTISRDNAKNTVYLQMKSLKPEDTAVYYCAARGYRADQWEYDYWGQGTQVTVSS	low polyreactivity
QVQLVESGGGLGQAGGSLRLSCADSGRTFYKYAMGWYRQSPGKERDLVAAISGSGGSTFYADSVKGRFTISRDNAKNTVYLQMNSLKPEDTAVYYCAKYLRPRIGYRYYYWVQGTQVTVSS	high polyreactivity
QVQLVESGGGLDQAGGSLRLSCAASGTFSRNAMGWYRQAPGKERELLADISGGRSTDYADSVKGRFTISRDNAKNTVYLQMNSLKPEDTAVYYCAAYGYLWWEMDYWGQGTQVTVSS	high polyreactivity
QVQLVESGGGLVQAGGSLRLSCAASGSTFNRNGMGWYRQAPGKERELVAAISRSTTSTYYADSVKGRFTISRDNAKNTVYLQMNSLKPEDTAVYYCATPHRYRVDYWGQGTQVTVSS	high polyreactivity

Sequence	polyreactivity (PSR sort gate)
QVQLVESGGGLVQAGGSLRLSCAAYGIIFYYYAMGWYRQAPGKERELVAAITGTGSRTYYADSVKGRFTISRDNAKNTVYLQMNSLKPEDTAVYYCNARSFATGSEVPARGYWGQGTQVTVSS	high polyreactivity
QVQLVESGGGLVQAGGSLRLSCAASGFIFTSYAMGWYRQAPGKERELVAAITDGGSTNYADSVKGRFTISRDNAKNTVYLQMNSLKPEDTAVYYCAADGFKTVLPEYDYWGQGTQVTVSS	low polyreactivity
QVQLVESGGGLVQAGGSLRLSCAASGRTFYFYAMGWSRQSPGKERELVADIRGISGSTYYADSVKGRFTISRDNAKNTVYLQMNSLKPEDTAVYYCAADPYLGRAWRGRGYYWGQGTQVTVSS	high polyreactivity
QVQLVESGGGLVQAGGSLRLSCAASGFTFSRYAMGWYRQAPGKERELVAAIRLRDGITYYADSVKGRFTISRDNAKNTVYLQMISLKPEDTAVYYCNAVNRTPVSQLDYWGQGTQVTVSS	high polyreactivity
QVQLVESGGGLVHAGGSLRLSCAASGSIFQYNAMGWYRQAPGKERELVATISSGGSTNYADSVKGRFTISRDNAKNTVYLQMNSLKPEDTAVYYCAAVVIVFYYAPNYWGDIEYGYWGQGTQVTVSS	low polyreactivity
HVQLVQSGGGLVQAGGSSRLSCAASGSIFFFNTMGWYSQAPGKERELVAVITSGGSTYYADSVTGRFRISRDNAKNTVYVQMNSLKPEDPAVYYCAARYLPYRRIKYDYWGQGTQVTVSS	low polyreactivity
QVQLVQSGGGLVQAGGSLRLSCAASGRTLWSYVMGWYRQAPGKERELVAAITSGGTTYYADSVKGRFTISRDNAKNTVYLQMNSLKPEDTAVYYCNVYTKFVYAYDYWGQGTQVTVSS	high polyreactivity
QVQLVESGGGLVQAGGSLRLSCAASGSIFSYYAMGWYRQAPGKERELVAAISQSGGTTYYADSVKGRFTISRDNAKNTVYLQMNSLKPEDTAVYYCAARAPSSFDTQYYYWGQGTQVTVSS	low polyreactivity
QVQLVESGGGLVQAGGSLRLSCAASGSTFGYYGMGWYRQAPGKETELVAAISTGGRTNYADSVKGRFTISRDNAKNTVYLQMNSLKPEDTAVYYCAADFLSPAYRPSWYRFDYWGLGTQVTVSS	low polyreactivity
QVQLVESGGGLVQAGGSLRLSCGASGSTFDHYAMGWYRQAPGKERELVAAITRSGGSTYYADSVKGRFTISRDNAKNTVYIQMNSLKPEDTAVYYCNARRWITSDYWGQGTQVTVSS	high polyreactivity
QVQLVESGGGLVQAGGSLRLTCAASGSTFNAYTMGWYRQAPGKERELVAAISSGAGTYYADSVKGRFTISRDNAKYIVYLPMNSLKPEDTAVYYCAADPVGYYDPSVYWGQGTLVTVSS	low polyreactivity
QVQLVESGGGLVQAGGSLRLSCAASGSIFTYYVRGWYRQAPVKERELVAGISRRGSTYYADSVKGRFTISRDNAKNTVYLQMNSLKQEDTAVYYCAAEPWVGTLYPRVGYWGQGTQVTVSS	low polyreactivity
QVQLVESGGGLVQAGGSLRLSCAASGSTFGVNAMGWSRQAPGKERELVAVITRSGGSTYYADSVKGRFTISRDNAKNTVFLQMNSLIPEDTAVYYCAKSGVVDWGQGTQVTVSS	low polyreactivity
QVQLVESGGGLVQAGGSLRISCAASGFTFTYYTMGWYRQAPGKERELVAAINRSGTSTYYADSVKGRFTISRDNAKNTVYLQMNSLKPEDTAVYYCAAKFTTGYYYGVPRDYWGQGTQVTVSS	high polyreactivity
QVQLVESGGGLVQAGGSLRLSCAASGSIFGIYAMGWYRQAPGKERELVAAISSRAGSTNYADSVKGRFTISRDNAKNTVYLKMNSLKPEDTAVYDCNAKFSPPRRWPLRDYWGQGTQVTVSS	high polyreactivity
QVQLVESGGGLVQAGGSLRLTCAASGRIFRTYAMGWYRQAPGKERELVAAISGRGGNTYYADSVKGRFTISRDNAKNTVYLQMNSLKPEDTAVYYCAASKPSRDTQQRWVYAGYDYWGQGTQVTVSS	high polyreactivity
QVQLVESGGGLVQAGGSLRLSCAASGRIFYFYAMGGYRQAPGKERELVAAISRRGGTTNYADSVKGRFTISRDNAKNTVYLQMNSLKPEDTAVYYCAADYQSVGGAEYDYWGQGTQVTVSS	high polyreactivity
QVQLVESGGGLVQAGGRLRLSCAASGSTFYLNAMGWYRQAPGQERELVAAINGGGSTNYADSVKGRFTISRDNAKNTVYLQRNSLKPEDTAVYYCAAETSYANRDRFDYWGQGTQVTVSS	low polyreactivity
QVQLVESGGGLVQAGGSLRLSCAASGRIFSNNVMGWNRQGPGKERELVATISTDGRTNYADSVKGRFTISRDNAKNTVYLQMNSQKPEDTAVSYCAATGVTLLLSSKSDYWGQGTQVTVSS	low polyreactivity
QVQLVESGGGLVQAGGSLRLSCAASGSTFGANAMGGYRQAPGKERELVATISSGGRTYYADSVKGRFTISRDNAKNTVYLQMNSLKPEDTAVYYCNAGADYTYVYISVYVLYDYWGQGTQVTVSS	low polyreactivity

From the nanobody polyreactivity screen of Harvey et al. (2022)
